± gives the uncertainty stated by the source.
Assay: self-splicing fitness, log relative to wild type (ln ratio); higher = more splicing; Tetrahymena group I intron in knt gene, E. coli kanamycin selection, DiMSum; sequences stand for … in CUCUCU…GGAGGGAAAAGUUAUCAGGCAUGCACCUGGUAGCUAGUCUUUAAACCAAUAGAUUGCAUCGGUUUAAAAGGCAAGACCGUCAAAUUGCGGGAAAGGGGUCAACAGCCGUUCAGUACCAAGUCUCAGGGGAAACUUUGAGAUGGCCUUGCAAAGGGUAUGGUAAUAAGCUGACGGACAUGGUCCUAACCACGCAGCCAAGUCCUAAGUCAACAGAUCUUCUGUUGAUAUGGAUGCAGUUCACAGACUAAAUGUCGGUCGGGGAAGAUGUAUUCUUCUCAUAAGAUAUAGUCGGACCUCUCCUUAAUGGGAGCUAGCGGAUGAAGUGAUGCAACACUGGAGCCGCUGGGAACUAAUUUGUAUGCGAAAGUAUAUUGAUUAGUUUUGGAGUACUCGUGGUCG
Method in brief: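 Six replicate transformations of E. coli BL21(DE3) with a pET-22b(+) library were grown overnight at 37°C or 30°C. The library randomised all eight P1ex-region intron nucleotides, the intron lying in the knt kanamycin-resistance gene, and plates were LB agar with or without 25 μg/mL kanamycin plus 100 μg/mL carbenicillin, 50 μM IPTG and 0.2% rhamnose. Pooled colonies were amplicon-sequenced on an Illumina HiSeq 2500, and fitness is the DiMSum error-weighted combination of wild-type-normalised replicate fold changes, kanamycin versus none.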

Row | Sequence | self-splicing fitness (ln) (37 °C) | self-splicing fitness (ln) (30 °C)
1 | UGCGAGCAAUAUUACGUUCG | -1.25 ± 0.34 | –
2 | GUCUAGCAAUAUUACGUAUU | -0.635 ± 0.095 | -0.645 ± 0.086
3 | GCCCAGCAAUAUUACGCGGU | -3.02 ± 0.19 | -3.33 ± 0.16
4 | CCGAAGCAAUAUUACGAAGU | -2.8 ± 0.29 | -3.15 ± 0.19
5 | ACUAAGCAAUAUUACGCGAG | -0.355 ± 0.089 | -1.77 ± 0.082
6 | AUGUAGCAAUAUUACGUUCC | -0.942 ± 0.17 | -1.92 ± 0.12
7 | AGACAGCAAUAUUACGAAGA | -2.41 ± 0.34 | -3.75 ± 0.33
8 | UCCGAGCAAUAUUACGAGAU | -2.02 ± 0.29 | -3.41 ± 0.24
9 | UCUGAGCAAUAUUACGGUCC | – | -2.51 ± 0.25
10 | GCUUAGCAAUAUUACGCCAG | -1.76 ± 0.33 | -1.89 ± 0.33
11 | GCUCAGCAAUAUUACGCAUC | -0.186 ± 0.087 | -0.653 ± 0.079
12 | AGCCAGCAAUAUUACGCGAG | -1.29 ± 0.16 | -1.65 ± 0.13
13 | GUCAAGCAAUAUUACGACUC | -0.881 ± 0.15 | -1.73 ± 0.15
14 | CGCCAGCAAUAUUACGAGUU | -3.16 ± 0.2 | -3.19 ± 0.15
15 | CGACAGCAAUAUUACGUAGG | -0.934 ± 0.076 | -0.919 ± 0.062
16 | UAGCAGCAAUAUUACGGAGC | -1.74 ± 0.49 | -2.95 ± 0.44
17 | UGUCAGCAAUAUUACGGAUC | -0.775 ± 0.075 | -1.89 ± 0.08
18 | CCGCAGCAAUAUUACGCUAU | -3.04 ± 0.25 | -3.78 ± 0.3
19 | GCCAAGCAAUAUUACGAAAC | -0.23 ± 0.14 | -2.15 ± 0.14
20 | GUAAAGCAAUAUUACGGGCG | -0.386 ± 0.12 | -0.457 ± 0.12
21 | UGUAAGCAAUAUUACGGUCU | -0.33 ± 0.11 | -0.465 ± 0.089
22 | AGACAGCAAUAUUACGUGUU | -2.29 ± 0.14 | -3.8 ± 0.16
23 | AAUUAGCAAUAUUACGGCCG | 0.571 ± 0.28 | -0.532 ± 0.18
24 | CUGGAGCAAUAUUACGCGUG | 0.32 ± 0.12 | -3.27 ± 0.15
25 | GACUAGCAAUAUUACGUGGU | -2.73 ± 0.15 | -3.39 ± 0.13

Row | Sequence | self-splicing fitness (ln) (37 °C) | self-splicing fitness (ln) (30 °C)
26 | UUUCAGCAAUAUUACGGCGU | -0.454 ± 0.14 | -2.37 ± 0.14
27 | CGUCAGCAAUAUUACGAAGG | -0.652 ± 0.11 | -0.693 ± 0.074
28 | GGGGAGCAAUAUUACGAACA | -0.419 ± 0.28 | -1.6 ± 0.35
29 | GCGGAGCAAUAUUACGCCGU | – | -1.4 ± 0.28
30 | AUAGAGCAAUAUUACGAAGC | -0.819 ± 0.35 | -2.7 ± 0.28
31 | GCUUAGCAAUAUUACGGGUG | -0.144 ± 0.075 | -0.826 ± 0.059
32 | GUCUAGCAAUAUUACGGCUU | 0.12 ± 0.14 | -0.982 ± 0.12
33 | GAUGAGCAAUAUUACGUCGA | -2.68 ± 0.3 | -3.33 ± 0.35
34 | ACUAAGCAAUAUUACGGCGA | -0.411 ± 0.13 | -0.131 ± 0.1
35 | CCUUAGCAAUAUUACGCGAA | -2.62 ± 0.29 | -4.02 ± 0.26
36 | CCUUAGCAAUAUUACGCGGG | -2.21 ± 0.2 | -3.22 ± 0.16
37 | CAUCAGCAAUAUUACGCAUA | -0.647 ± 0.1 | -1.59 ± 0.089
38 | AUCGAGCAAUAUUACGAAUU | -2.1 ± 0.2 | -3.57 ± 0.25
39 | AAUAAGCAAUAUUACGCUAG | -1.17 ± 0.17 | -1.79 ± 0.18
40 | ACCUAGCAAUAUUACGAGCA | -1.59 ± 0.14 | -1.17 ± 0.1
41 | GCUUAGCAAUAUUACGAGUA | -0.0404 ± 0.14 | -1.37 ± 0.16
42 | UAUGAGCAAUAUUACGUUCG | -0.169 ± 0.12 | -1.45 ± 0.091
43 | AACCAGCAAUAUUACGUAGA | -0.514 ± 0.058 | -1.75 ± 0.044
44 | AGGCAGCAAUAUUACGGGUU | -1.01 ± 0.12 | -3.33 ± 0.22
45 | UGGGAGCAAUAUUACGGGGU | -1.7 ± 0.35 | -1.76 ± 0.33
46 | CCCCAGCAAUAUUACGGGCC | -1.7 ± 0.15 | -3.27 ± 0.15
47 | GCGAAGCAAUAUUACGUGGU | -2.92 ± 0.2 | -3.09 ± 0.17
48 | CCUAAGCAAUAUUACGUUAU | -2.85 ± 0.24 | -3.35 ± 0.17
49 | UGUCAGCAAUAUUACGGUCA | 0.606 ± 0.091 | -0.432 ± 0.071
50 | GGUGAGCAAUAUUACGAAUG | -2.36 ± 0.5 | -3.14 ± 0.29

Row | Sequence | self-splicing fitness (ln) (37 °C) | self-splicing fitness (ln) (30 °C)
51 | GCGCAGCAAUAUUACGUUAG | -2.26 ± 0.18 | -4.26 ± 0.2
52 | CAGAAGCAAUAUUACGCAAC | -2.39 ± 0.33 | –
53 | AUCGAGCAAUAUUACGUUCU | -1 ± 0.089 | -1.32 ± 0.074
54 | GCCAAGCAAUAUUACGAGAA | -0.69 ± 0.35 | -2.69 ± 0.4
55 | AACAAGCAAUAUUACGUAUA | -1.59 ± 0.12 | -2.4 ± 0.13
56 | CGCUAGCAAUAUUACGAUGA | -0.401 ± 0.087 | -1.14 ± 0.1
57 | GAACAGCAAUAUUACGGCGC | -0.195 ± 0.09 | -0.147 ± 0.065
58 | ACAAAGCAAUAUUACGGCUA | -0.0776 ± 0.062 | -0.14 ± 0.054
59 | ACUGAGCAAUAUUACGCUGA | -1.2 ± 0.34 | -2.19 ± 0.47
60 | CUUUAGCAAUAUUACGUGAC | -1.53 ± 0.29 | -1.42 ± 0.19
61 | ACUGAGCAAUAUUACGUAUG | -1.08 ± 0.14 | -3.4 ± 0.15
62 | ACGGAGCAAUAUUACGAACG | -0.693 ± 0.16 | -2.54 ± 0.16
63 | GUCCAGCAAUAUUACGAGAU | -1.32 ± 0.11 | -2.92 ± 0.13
64 | AAGGAGCAAUAUUACGAUGA | -2.02 ± 0.2 | -3.04 ± 0.24
65 | UCCGAGCAAUAUUACGCGAC | -1.58 ± 0.4 | -2.63 ± 0.41
66 | UUACAGCAAUAUUACGGUAG | -0.729 ± 0.13 | -1.92 ± 0.12
67 | GGGAAGCAAUAUUACGGCAG | – | -2.64 ± 0.34
68 | GGUUAGCAAUAUUACGAGAG | -2.45 ± 0.39 | -2.64 ± 0.44
69 | AGGCAGCAAUAUUACGCAUC | -1.04 ± 0.11 | -3.99 ± 0.19
70 | CGUGAGCAAUAUUACGAAUA | -2.87 ± 0.32 | -2.8 ± 0.28
71 | GGUUAGCAAUAUUACGGUGU | -0.973 ± 0.15 | -2.18 ± 0.11
72 | GAAGAGCAAUAUUACGGUGU | -3.02 ± 0.23 | -3.49 ± 0.14
73 | CGUGAGCAAUAUUACGUGAA | -1.17 ± 0.22 | –
74 | CUGUAGCAAUAUUACGGAGA | -3.56 ± 0.34 | -2.5 ± 0.21
75 | CGCAAGCAAUAUUACGUCGG | -0.192 ± 0.089 | -0.371 ± 0.061

Row | Sequence | self-splicing fitness (ln) (37 °C) | self-splicing fitness (ln) (30 °C)
76 | AUAGAGCAAUAUUACGGGUG | -2.58 ± 0.26 | -3.22 ± 0.24
77 | UGCCAGCAAUAUUACGCCAC | -2.54 ± 0.29 | –
78 | CAACAGCAAUAUUACGUUUU | -2.19 ± 0.11 | -3.57 ± 0.11
79 | UCACAGCAAUAUUACGCCAC | -3.66 ± 0.3 | –
80 | GGUCAGCAAUAUUACGAGGC | -2.84 ± 0.43 | -3.61 ± 0.3
81 | GGUGAGCAAUAUUACGCUAC | – | -2.34 ± 0.2
82 | AGCGAGCAAUAUUACGUCGA | -2.3 ± 0.28 | -2.82 ± 0.27
83 | UGAUAGCAAUAUUACGACUG | -0.49 ± 0.17 | 0.053 ± 0.18
84 | CAUGAGCAAUAUUACGAAUC | -2.57 ± 0.42 | –
85 | GCGCAGCAAUAUUACGCAAU | -0.27 ± 0.1 | -1.56 ± 0.09
86 | AUCCAGCAAUAUUACGUCCC | -1.1 ± 0.28 | -0.894 ± 0.22
87 | CAGUAGCAAUAUUACGGACC | – | -2.15 ± 0.36
88 | UUAGAGCAAUAUUACGAUGU | -2.43 ± 0.41 | -2.59 ± 0.41
89 | ACCCAGCAAUAUUACGCUCU | 0.107 ± 0.067 | -0.186 ± 0.058
90 | UAAGAGCAAUAUUACGUAAU | -3.17 ± 0.29 | -3.14 ± 0.15
91 | CCCAAGCAAUAUUACGAAAA | -2.1 ± 0.22 | -2.96 ± 0.21
92 | CAGGAGCAAUAUUACGGUAA | -2.51 ± 0.44 | –
93 | UGGGAGCAAUAUUACGCAUG | -0.201 ± 0.22 | -3.28 ± 0.35
94 | GAAAAGCAAUAUUACGUCUA | 0.0921 ± 0.066 | -0.367 ± 0.053
95 | ACGGAGCAAUAUUACGCAGU | -2.35 ± 0.49 | -3.19 ± 0.34
96 | GGGUAGCAAUAUUACGUUAU | -1.33 ± 0.15 | -3.17 ± 0.25
97 | UAGGAGCAAUAUUACGCGCA | -0.414 ± 0.12 | -0.955 ± 0.1
98 | GGAUAGCAAUAUUACGGUUG | -0.953 ± 0.18 | -3.53 ± 0.26
99 | CUGUAGCAAUAUUACGGCAG | -1.32 ± 0.24 | -3.85 ± 0.33

Reference: the supplement of paper PMC7877785
